Test results as given in patent publication US20120316071A1 (published 2012).

T1: rHuman Erythropoietin R/Fc Chimera, CF (R&D Systems Cat#963-ER) (human, UniProt P19235 25-250)
T1 construct: Bought recombinant protein; also called EPO R; EPO R/Fc; Fc part of the bought chimera not given
T1 sequence (looked up): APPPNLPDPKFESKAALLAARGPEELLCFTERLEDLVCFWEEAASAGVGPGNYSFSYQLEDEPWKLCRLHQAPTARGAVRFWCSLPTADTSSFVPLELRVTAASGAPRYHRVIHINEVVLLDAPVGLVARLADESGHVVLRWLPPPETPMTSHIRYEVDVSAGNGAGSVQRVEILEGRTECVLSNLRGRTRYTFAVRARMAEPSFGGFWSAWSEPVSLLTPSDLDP

T2: rHuman Erythropoietin R/Fc Chimera, CF (R&D Systems Cat#963-ER) (human, UniProt P19235 25-250)
T2 construct: Bought recombinant protein; also called EPO R; Epo R; Fc part of the bought chimera not given
T2 sequence (looked up): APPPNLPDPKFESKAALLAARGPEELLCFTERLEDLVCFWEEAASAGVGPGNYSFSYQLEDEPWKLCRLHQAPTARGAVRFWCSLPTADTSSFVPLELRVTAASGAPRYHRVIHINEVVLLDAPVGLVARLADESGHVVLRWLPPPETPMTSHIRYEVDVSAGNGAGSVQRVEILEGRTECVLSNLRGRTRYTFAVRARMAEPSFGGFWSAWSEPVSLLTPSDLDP


Columns and labels:
[1] = target: T3, rHuman ErbB2/Fc Chimera, CF (R&D Systems Cat#1129-ER) (human, UniProt P04626 23-652); assay: ECL (MSD) multispot binding assay, antigen spotted on plate, 20 nM Fab;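 note: purified Fab incubated 1 h at 20 °C on antigen-spotted plate, bound Fab revealed with TAG detection antibody, ECL read, antigen signal divided by same-well blank, ratio ≥4 counted as hit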
T3 construct: Bought recombinant protein; also called human epidermal growth factor 2 receptor; Fc part of the bought chimera not given

[2] = target: T4, rHuman Notch-1/Fc Chimera, CF (R&D Systems Cat#3647-TK) (human, UniProt P46531 19-526); assay: as above
T4 construct: Bought recombinant protein; Fc part of the bought chimera not given

[3] = target: T5, rHuman P-Cadherin/Fc Chimera, CF (R&D Systems Cat#861-PC) (human, UniProt P22223 108-654); assay: as above
T5 construct: Bought recombinant protein; Fc part of the bought chimera not given

[4] = target: T6, rHuman IGF-1 sR, (IGF-1 sR), CF (R&D Systems Cat#391-GR) (human, UniProt P08069 31-932); assay: as above
T6 construct: Bought recombinant soluble receptor; also called insulin-like growth factor-1 soluble receptor

[5] = target: T7, rHuman EGF R/Fc Chimera, CF (R&D Systems Cat#344-ER) (human, UniProt P00533 25-645); assay: as above
T7 construct: Bought recombinant protein; also called epidermal growth factor receptor; Fc part of the bought chimera not given

[6] = target: T1, rHuman Erythropoietin R/Fc Chimera, CF …; assay: as above
[7] = target: T8, Recombinant Human DLL4 (R&D Systems Cat#1506-D4/CF) (human, UniProt Q9NR61 27-524); assay: as above
T8 construct: Bought recombinant protein; also called delta-like protein 4; rHuman DLL4

[8] = target: T9, rHuman CD44/Fc Chimera, CF (R&D Systems Cat#3660-CD) (human, UniProt P16070 21-220); assay: as above
T9 construct: Bought recombinant protein; Fc part of the bought chimera not given

[9] = target: T10, rHuman ErbB2/Fc Chimera, CF (R&D Systems Cat#1129-ER) (human, UniProt P04626 23-652); assay: ECL multispot (MSD) binding assay, antigens spotted on plate, 20 nM Fab;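 note: fab incubated 1 h at 20 °C on antigen-spotted wells, bound Fab detected by TAG-labelled antibody, ratio of 4 or more over blank counted as a hit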
T10 construct: Bought recombinant protein; also called human epidermal growth factor 2 receptor; Fc part of the bought chimera not given

[10] = target: T11, rHuman EGF R/Fc Chimera, CF (R&D Systems Cat#344-ER) (human, UniProt P00533 25-645); assay: as above
T11 construct: Bought recombinant protein; also called epidermal growth factor receptor; Fc part of the bought chimera not given

[11] = target: T12, Recombinant Human DLL4 (R&D Systems Cat#1506-D4/CF) (human, UniProt Q9NR61 27-524); assay: as above
T12 construct: Bought recombinant protein; also called delta-like protein 4; rHuman DLL4

[12] = target: T13, rHuman CD44/Fc Chimera, CF (R&D Systems Cat#3660-CD) (human, UniProt P16070 21-220); assay: as above
T13 construct: Bought recombinant protein; Fc part of the bought chimera not given

[13] = target: T14, rHuman P-Cadherin/Fc Chimera, CF (R&D Systems Cat#861-PC) (human, UniProt P22223 108-654); assay: as above
T14 construct: Bought recombinant protein; Fc part of the bought chimera not given

[14] = target: T2, rHuman Erythropoietin R/Fc Chimera, CF …; assay: as above
[15] = target: T15, rHuman Notch-1/Fc Chimera, CF (R&D Systems Cat#3647-TK) (human, UniProt P46531 19-526); assay: as above
T15 construct: Bought recombinant protein; Fc part of the bought chimera not given

[16] = target: T16, rHuman IGF-1 sR, (IGF-1 sR), CF (R&D Systems Cat#391-GR) (human, UniProt P08069 31-932); assay: as above
T16 construct: Bought recombinant soluble receptor; The column head prints only 'IGF-1'; also called insulin-like growth factor-1 soluble receptor

Binder | ECL signal/blank ratio [1] | ECL signal/blank ratio [2] | ECL signal/blank ratio [3] | ECL signal/blank ratio [4] | ECL signal/blank ratio [5] | ECL signal/blank ratio [6] | ECL signal/blank ratio [7] | ECL signal/blank ratio [8] | ECL multispot signal (ratio to blank; column not labelled) [9] | ECL multispot signal (ratio to blank; column not labelled) [10] | ECL multispot signal (ratio to blank; column not labelled) [11] | ECL multispot signal (ratio to blank; column not labelled) [12] | ECL multispot signal (ratio to blank; column not labelled) [13] | ECL multispot signal (ratio to blank; column not labelled) [14] | ECL multispot signal (ratio to blank; column not labelled) [15] | ECL multispot signal (ratio to blank; column not labelled) [16]
Fab VH3-23_IGHD2-21*01>3_IGHJ6*01 H100E/S108P/Y113G/Y111I & V2-13_IGLJ2*01 (Fab, V domains shown, Fab made in E. coli: VH joined to CH1 (with His and Flag tags, plasmid A) and VL to lambda CL (plasmid E); also called EPG Y111I) VH: not shown VL: SSELTQDPAVSVALGQTVRITCQGDSLRSYYASWYQQKPGQAPVLVIYGKNNRPSGIPDRFSGSSSGNTASLTITGAQAEDEADYYCNSRDSSGNHLVVFGGGTKLTVL | 1.7 | 1.8 | 1.9 | 1 | 1.9 | 6.9 | 1.5 | 1.3 |  |  |  |  |  |  |  | 
Fab VH3-23_IGHD2-21*01>3_IGHJ6*01 H100E/S108P/Y113G Y110P & V2-13_IGLJ2*01 (Fab, V domains shown, Tested as Fab made in E. coli: VH joined to CH1 (His and Flag tags), VL joined to lambda CL; also called EPG Y110P) VH: not shown VL: SSELTQDPAVSVALGQTVRITCQGDSLRSYYASWYQQKPGQAPVLVIYGKNNRPSGIPDRFSGSSSGNTASLTITGAQAEDEADYYCNSRDSSGNHLVVFGGGTKLTVL |  |  |  |  |  |  |  |  | 0.9 | 1.1 | 1.4 | 1.2 | 1.7 | 2.9 | 1.1 | 1.2
Fab VH3-23_IGHD2-21*01>3_IGHJ6*01 H100E/S108P/Y113G Y110S & V2-13_IGLJ2*01 (Fab, V domains shown, Tested as Fab made in E. coli: VH joined to CH1 (His and Flag tags), VL joined to lambda CL; also called EPG Y110S) VH: not shown VL: SSELTQDPAVSVALGQTVRITCQGDSLRSYYASWYQQKPGQAPVLVIYGKNNRPSGIPDRFSGSSSGNTASLTITGAQAEDEADYYCNSRDSSGNHLVVFGGGTKLTVL |  |  |  |  |  |  |  |  | 1 | 1.3 | 1.2 | 1 | 1.9 | 4.5 | 0.8 | 1.1

Second part, the binder after the results:

ECL signal/blank ratio [1] | ECL signal/blank ratio [2] | ECL signal/blank ratio [3] | ECL signal/blank ratio [4] | ECL signal/blank ratio [5] | ECL signal/blank ratio [6] | ECL signal/blank ratio [7] | ECL signal/blank ratio [8] | ECL multispot signal (ratio to blank; column not labelled) [9] | ECL multispot signal (ratio to blank; column not labelled) [10] | ECL multispot signal (ratio to blank; column not labelled) [11] | ECL multispot signal (ratio to blank; column not labelled) [12] | ECL multispot signal (ratio to blank; column not labelled) [13] | ECL multispot signal (ratio to blank; column not labelled) [14] | ECL multispot signal (ratio to blank; column not labelled) [15] | ECL multispot signal (ratio to blank; column not labelled) [16] | Binder
1.5 | 1.3 | 2.9 | 0.8 | 1.4 | 9.3 | 1.1 | 0.9 |  |  |  |  |  |  |  |  | Fab VH3-23_IGHD2-21*01>3_IGHJ6*01 H100E/S108P/Y113G/Y111N & V2-13_IGLJ2*01 (Fab, V domains shown, Fab made in E. coli: VH joined to CH1 (with His and Flag tags, plasmid A) and VL to lambda CL (plasmid E); also called EPG Y111N) VH: not shown VL: SSELTQDPAVSVALGQTVRITCQGDSLRSYYASWYQQKPGQAPVLVIYGKNNRPSGIPDRFSGSSSGNTASLTITGAQAEDEADYYCNSRDSSGNHLVVFGGGTKLTVL
 | 2 | 6.2 | 1.2 |  | 38.8 | 2.2 | 1.8 |  |  |  |  |  |  |  |  | Fab VH3-23_IGHD2-21*01>3_IGHJ6*01 H100E/S108P/Y113G/Y111T & V2-13_IGLJ2*01 (Fab, V domains shown, Fab made in E. coli: VH joined to CH1 (with His and Flag tags, plasmid A) and VL to lambda CL (plasmid E); also called EPG Y111T) VH: not shown VL: SSELTQDPAVSVALGQTVRITCQGDSLRSYYASWYQQKPGQAPVLVIYGKNNRPSGIPDRFSGSSSGNTASLTITGAQAEDEADYYCNSRDSSGNHLVVFGGGTKLTVL
2.1 | 1.6 |  | 1.4 | 1.6 | 4.8 | 1.8 | 1.3 |  |  |  |  |  |  |  |  | Fab VH3-23_IGHD2-21*01>3_IGHJ6*01 H100E/S108P/Y113G/Y110R & V2-13_IGLJ2*01 (Fab, V domains shown, Fab made in E. coli: VH joined to CH1 (with His and Flag tags, plasmid A) and VL to lambda CL (plasmid E); also called EPG Y110R) VH: not shown VL: SSELTQDPAVSVALGQTVRITCQGDSLRSYYASWYQQKPGQAPVLVIYGKNNRPSGIPDRFSGSSSGNTASLTITGAQAEDEADYYCNSRDSSGNHLVVFGGGTKLTVL
2.1 | 1.9 | 5 | 1.3 | 1.8 | 30.1 | 1.7 | 1.2 |  |  |  |  |  |  |  |  | Fab VH3-23_IGHD2-21*01>3_IGHJ6*01 H100E/S108P/Y113G/Y111S & V2-13_IGLJ2*01 (Fab, V domains shown, Fab made in E. coli: VH joined to CH1 (with His and Flag tags, plasmid A) and VL to lambda CL (plasmid E); also called EPG Y111S) VH: not shown VL: SSELTQDPAVSVALGQTVRITCQGDSLRSYYASWYQQKPGQAPVLVIYGKNNRPSGIPDRFSGSSSGNTASLTITGAQAEDEADYYCNSRDSSGNHLVVFGGGTKLTVL
